The target of test [1] is DUSP3-WT (dual-specificity phosphatase 3) (UniProt P51452). In words: SPR; Biacore T100; DUSP3-WT or DUSP3-C124S immobilised on CM5 sensorchip (200 RU); protein analytes 12.5-1,000 nM; kinetic assays at 25°C, HBS-EP buffer, 10 μl/min, 120 s association, 300 s dissociation; three independent experiments.
Test [2] concerns the target DUSP3-C124S mutant (phosphatase dead) (UniProt P51452). Described as above.
Test [3] addresses dual-specificity phosphatase 3 (DUSP3), wild type (UniProt P51452). In words: SPR; Biacore T100; DUSP3-WT or DUSP3-C124S immobilised on CM5 sensorchip (200 RU); analytes 12.5 to 1,000 nM; 25°C; HBS-EP buffer; association 120 s, dissociation 300 s, 10 μl/min.

Sequence of DUSP3-C124S mutant (phosphatase dead) (P51452 whole entry C124S): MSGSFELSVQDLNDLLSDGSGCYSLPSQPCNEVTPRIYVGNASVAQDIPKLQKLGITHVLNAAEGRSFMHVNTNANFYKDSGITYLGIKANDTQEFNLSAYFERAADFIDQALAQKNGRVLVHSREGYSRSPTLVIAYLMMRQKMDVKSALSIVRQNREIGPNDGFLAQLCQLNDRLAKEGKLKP
Sequence of dual-specificity phosphatase 3 (DUSP3), wild type (P51452 whole entry): as the sequence (P51452 whole entry C124S) above, with S124C counted along it
Sequence of DUSP3-WT (dual-specificity phosphatase 3) (P51452 whole entry): as the sequence (P51452 whole entry C124S) above, with S124C counted along it

Usually Kd stands for the concentration at which binding is half-saturated. Take “NPM full length (nucleophosmin) (natural protein)”: the Kd in test [1] turned out to be 17.2 nM; in test [2], 11.5 nM.

“nucleophosmin (NPM) full length (natural protein)”: in test [3], the fold higher affinity than ERK1 was found to be 10 fold and the fold higher affinity than NPM 9-122 was 17 fold.

“truncated N-terminal of NPM 9-122 (domain or fragment)”: the results for the Kd in test [1] and in test [2] were 294 nM and 393 nM, respectively.

(Values after article PMC7991746.)
